Source: patent US20240285573A1, “PHARMACEUTICAL COMPOSITION FOR PREVENTING OR TREATING DIABETIC EYE DISEASE COMPRISING SGLT-2 INHIBITOR” (priority 2021, published 2024)

Tested on: diabetic retinopathy animal model
Test: Retinal fluorescein intensity (fundus imaging) in streptozotocin-induced diabetic retinopathy animal model
Type: in vivo, Brown Norway rats (BN/SsN Slc)
Settings: relative to normal control G1 = 100%, STZ-induced rats, right eye, intravitreal, non-vascular regions of retina
Protocol: Brown Norway rats (BN/SsN Slc) were used. […] Streptozotocin (STZ) was administered to animals determined to be healthy during the acclimation period, and blood sugar levels were measured on day 7 of administration. […] Streptozotocin was intravenously administered once at a dose of 60 mg/kg on the day of induction. G1 is a normal control in which diabetic retinopathy was not induced, G2 is a control in which diabetic retinopathy was induced and to which the vehicle of Comparative Example 1 was administered, and G3 and G4 are groups to which ranibizumab of Comparative Example 2 was administered as a positive control material, and G5 to G9 are groups to which the SGLT-2 inhibitors according to Examples 1 to 5 were administered, respectively. For intravitreal injection, animals were anesthetized, and a syringe with a 31-gauge needle was used to perform intravitreal injections into the right eye of the respective animals. The test material was administered as a single dose on the day of administration. The injection volume was either 1 μL/eye or 5 μL/eye. […] Retinal examination and efficacy were assessed using retinal fluorescent fundus photographs. […] The relative levels (%) of the measured values for each individual were analyzed, with the average value of the normal control group (G1) as the reference (100%), and comparisons were made between the groups. […]

B1: Ranibizumab (antibody, chains of the INN, looked up, V domains shown)
VH: EVQLVESGGGLVQPGGSLRLSCAASGYDFTHYGMNWVRQAPGKGLEWVGWINTYTGEPTYAADFKRRFTFSLDTSKSTAYLQMNSLRAEDTAVYYCAKYPYYYGTSHWYFDVWGQGTLVTVSS
VL: DIQLTQSPSSLSASVGDRVTITCSASQDISNYLNWYQQKPGKAPKVLIYFTSSLHSGVPSRFSGSGSGTDFTLTISSLQPEDFATYYCQQYSTVPWTFGQGTKVEIK
notes: LUCENTIS® purchased and administered as a positive control; anti-VEGF monoclonal antibody therapy
10 μg/eye, 1 μL/eye, once (G4)
  Fluorescence intensity on 21st day: 128.359%
50 μg/eye, 5 μL/eye, once (G3)
  Fluorescence intensity on 21st day: 125.586 ± 14.799 %
